# Experimental data taken from paper PMC7960994.
# How the values were obtained:
# [1] = molecular target: D474A-PfCpn60 (Plasmodium falciparum mitochondrial chaperonin 60, ATP hydrolysis-deficient mutant) (Plasmodium falciparum (isolate FCR-3/Gambia)); test: negative stain electron microscopy
# [2] = molecular target: D474A-PfCpn60 (Plasmodium falciparum mitochondrial chaperonin 60, ATP hydrolysis-deficient mutant) (Plasmodium falciparum (isolate FCR-3/Gambia)); test: crystal structure; D474A-PfCpn60 with bound ATP; crystals from phosphate citrate buffer pH 4.4, 13% isopropanol, lithium sulfate; 3.69 Å; one heptameric ring in the asymmetric unit
substance,measurement,setting,value
"D474A-PfCpn60 (Plasmodium falciparum mitochondrial chaperonin 60, ATP hydrolysis-deficient mutant) (domain or fragment)",stoichiometry N,[1],7
same,stoichiometry N,[2],14
